Measurements taken from PMC8298264, “Function of cofactor Akirin2 in the regulation of gene expression in model human neutrophil-like HL60 cells” (Bioscience Reports, 2021).

B1: sp¦Q9NVP1¦DDX18_HUMAN (protein, UniProt Q9NVP1 1-670, looked up)
ATP-dependent RNA helicase …: MSHLPMKLLRKKIEKRNLKLRQRNLKFQGASNLTLSETQNGDVSEETMGSRKVKKSKQKPMNVGLSETQNGGMSQEAVGNIKVTKSPQKSTVLTNGEAAMQSSNSESKKKKKKKRKMVNDAEPDTKKAKTENKGKSEEESAETTKETENNVEKPDNDEDESEVPSLPLGLTGAFEDTSFASLCNLVNENTLKAIKEMGFTNMTEIQHKSIRPLLEGRDLLAAAKTGSGKTLAFLIPAVELIVKLRFMPRNGTGVLILSPTRELAMQTFGVLKELMTHHVHTYGLIMGGSNRSAEAQKLGNGINIIVATPGRLLDHMQNTPGFMYKNLQCLVIDEADRILDVGFEEELKQIIKLLPTRRQTMLFSATQTRKVEDLARISLKKEPLYVGVDDDKANATVDGLEQGYVVCPSEKRFLLLFTFLKKNRKKKLMVFFSSCMSVKYHYELLNYIDLPVLAIHGKQKQNKRTTTFFQFCNADSGTLLCTDVAARGLDIPEVDWIVQYDPPDDPKEYIHRVGRTARGLNGRGHALLILRPEELGFLRYLKQSKVPLSEFDFSWSKISDIQSQLEKLIEKNYFLHKSAQEAYKSYIRAYDSHSLKQIFNVNNLNLPQVALSFGFKVPPFVDLNVNSNEGKQKKRGGGGGFGYQKTKKVEKSKIFKHISKKSSDSRQFSH
B2: sp¦Q9HAV0¦GBB4_HUMAN (protein, UniProt Q9HAV0 2-340, looked up)
Guanine nucleotide-binding …: SELEQLRQEAEQLRNQIQDARKACNDATLVQITSNMDSVGRIQMRTRRTLRGHLAKIYAMHWGYDSRLLVSASQDGKLIIWDSYTTNKMHAIPLRSSWVMTCAYAPSGNYVACGGLDNICSIYNLKTREGNVRVSRELPGHTGYLSCCRFLDDSQIVTSSGDTTCALWDIETAQQTTTFTGHSGDVMSLSLSPDMRTFVSGACDASSKLWDIRDGMCRQSFTGHVSDINAVSFFPNGYAFATGSDDATCRLFDLRADQELLLYSHDNIICGITSVAFSKSGRLLLAGYDDFNCNVWDTLKGDRAGVLAGHDNRVSCLGVTDDGMAVATGSWDSFLRIWN
B3: sp¦P00505¦AATM_HUMAN (protein, UniProt P00505 30-430, looked up)
Aspartate aminotransferase, …: SSWWTHVEMGPPDPILGVTEAFKRDTNSKKMNLGVGAYRDDNGKPYVLPSVRKAEAQIAAKNLDKEYLPIGGLAEFCKASAELALGENSEVLKSGRFVTVQTISGTGALRIGASFLQRFFKFSRDVFLPKPTWGNHTPIFRDAGMQLQGYRYYDPKTCGFDFTGAVEDISKIPEQSVLLLHACAHNPTGVDPRPEQWKEIATVVKKRNLFAFFDMAYQGFASGDGDKDAWAVRHFIEQGINVCLCQSYAKNMGLYGERVGAFTMVCKDADEAKRVESQLKILIRPMYSNPPLNGARIAAAILNTPDLRKQWLQEVKVMADRIIGMRTQLVSNLKKEGSTHNWQHITDQIGMFCFTGLKPEQVERLIKEFSIYMTKDGRISVAGVTSSNVGYLAHAIHQVTK
B4: sp¦Q9H2U2¦IPYR2_HUMAN (protein, UniProt Q9H2U2 33-334, looked up)
Inorganic pyrophosphatase 2, …: ALYHTEERGQPCSQNYRLFFKNVTGHYISPFHDIPLKVNSKEENGIPMKKARNDEYENLFNMIVEIPRWTNAKMEIATKEPMNPIKQYVKDGKLRYVANIFPYKGYIWNYGTLPQTWEDPHEKDKSTNCFGDNDPIDVCEIGSKILSCGEVIHVKILGILALIDEGETDWKLIAINANDPEASKFHDIDDVKKFKPGYLEATLNWFRLYKVPDGKPENQFAFNGEFKNKAFALEVIKSTHQCWKALLMKKCNGGAINCTNVQISDSPFRCTQEEARSLVESVSSSPNKESNEEEQVWHFLGK
B5: sp¦Q12931¦TRAP1_HUMAN (protein, UniProt Q12931 60-704, looked up)
Heat shock protein 75 kDa, …: STQTAEDKEEPLHSIISSTESVQGSTSKHEFQAETKKLLDIVARSLYSEKEVFIRELISNASDALEKLRHKLVSDGQALPEMEIHLQTNAEKGTITIQDTGIGMTQEELVSNLGTIARSGSKAFLDALQNQAEASSKIIGQFGVGFYSAFMVADRVEVYSRSAAPGSLGYQWLSDGSGVFEIAEASGVRTGTKIIIHLKSDCKEFSSEARVRDVVTKYSNFVSFPLYLNGRRMNTLQAIWMMDPKDVREWQHEEFYRYVAQAHDKPRYTLHYKTDAPLNIRSIFYVPDMKPSMFDVSRELGSSVALYSRKVLIQTKATDILPKWLRFIRGVVDSEDIPLNLSRELLQESALIRKLRDVLQQRLIKFFIDQSKKDAEKYAKFFEDYGLFMREGIVTATEQEVKEDIAKLLRYESSALPSGQLTSLSEYASRMRAGTRNIYYLCAPNRHLAEHSPYYEAMKKKDTEVLFCFEQFDELTLLHLREFDKKKLISVETDIVVDHYKEEKFEDRSPAAECLSEKETEELMAWMRNVLGSRVTNVKVTLRLDTHPAMVTVLEMGAARHFLRMQQLAKTQEERAQLLQPTLEINPRHALIKKLNQLRASEPGLAQLLVDQIYENAMIAAGLVDDPRAMVGRLNELLVKALERH
B6: sp¦P30044¦PRDX5_HUMAN (protein, UniProt P30044 53-214, looked up)
Peroxiredoxin-5, mitochondrial: MAPIKVGDAIPAVEVFEGEPGNKVNLAELFKGKKGVLFGVPGAFTPGCSKTHLPGFVEQAEALKAKGVQVVACLSVNDAFVTGEWGRAHKAEGKVRLLADPTGAFGKETDLLLDDSLVSIFGNRRLKRFSMVVQDGIVKALNVEPDGTGLTCSLAPNIISQL
B7: sp¦Q6NVY1¦HIBCH_HUMAN (protein, UniProt Q6NVY1 33-386, looked up)
3-hydroxyisobutyryl-CoA …: DAAEEVLLEKKGCTGVITLNRPKFLNALTLNMIRQIYPQLKKWEQDPETFLIIIKGAGGKAFCAGGDIRVISEAEKAKQKIAPVFFREEYMLNNAVGSCQKPYVALIHGITMGGGVGLSVHGQFRVATEKCLFAMPETAIGLFPDVGGGYFLPRLQGKLGYFLALTGFRLKGRDVYRAGIATHFVDSEKLAMLEEDLLALKSPSKENIASVLENYHTESKIDRDKSFILEEHMDKINSCFSANTVEEIIENLQQDGSSFALEQLKVINKMSPTSLKITLRQLMEGSSKTLQEVLTMEYRLSQACMRGHDFHEGVRAVLIDKDQSPKWKPADLKEVTEEDLNNHFKSLGSSDLKF
B8: sp¦P13804¦ETFA_HUMAN (protein, UniProt P13804 20-333, looked up)
Electron transfer …: QSTLVIAEHANDSLAPITLNTITAATRLGGEVSCLVAGTKCDKVAQDLCKVAGIAKVLVAQHDVYKGLLPEELTPLILATQKQFNYTHICAGASAFGKNLLPRVAAKLEVAPISDIIAIKSPDTFVRTIYAGNALCTVKCDEKVKVFSVRGTSFDAAATSGGSASSEKASSTSPVEISEWLDQKLTKSDRPELTGAKVVVSGGRGLKSGENFKLLYDLADQLHAAVGASRAAVDAGFVPNDMQVGQTGKIVAPELYIAVGISGAIQHLAGMKDSKTIVAINKDPEAPIFQVADYGIVADLFKVVPEMTEILKKK
B9: sp¦P04844¦RPN2_HUMAN (protein, UniProt P04844 23-631, looked up)
Dolichyl-diphosphooligosacchar …: LTPTHYLTKHDVERLKASLDRPFTNLESAFYSIVGLSSLGAQVPDAKKACTYIRSNLDPSNVDSLFYAAQASQALSGCEISISNETKDLLLAAVSEDSSVTQIYHAVAALSGFGLPLASQEALSALTARLSKEETVLATVQALQTASHLSQQADLRSIVEEIEDLVARLDELGGVYLQFEEGLETTALFVAATYKLMDHVGTEPSIKEDQVIQLMNAIFSKKNFESLSEAFSVASAAAVLSHNRYHVPVVVVPEGSASDTHEQAILRLQVTNVLSQPLTQATVKLEHAKSVASRATVLQKTSFTPVGDVFELNFMNVKFSSGYYDFLVEVEGDNRYIANTVELRVKISTEVGITNVDLSTVDKDQSIAPKTTRVTYPAKAKGTFIADSHQNFALFFQLVDVNTGAELTPHQTFVRLHNQKTGQEVVFVAEPDNKNVYKFELDTSERKIEFDSASGTYTLYLIIGDATLKNPILWNVADVVIKFPEEEAPSTVLSQNLFTPKQEIQHLFREPEKRPPTVVSNTFTALILSPLLLLFALWIRIGANVSNFTFAPSTIIFHLGHAAMLGLMYVYWTQLNMFQTLKYLAILGSVTFLAGNRMLAQQAVKRTAH

Each molecule was assayed on human HL60 cells (assay: SWATH-MS proteomics, differential protein representation, akirin2 KO vs WT HL60 cells). Conditions: SWATH-MS, akirin2 KO vs WT HL60 cells; sheet "Under-represented in KO".
Format: cell-based
How it was run: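 First, proteins from wild-type and knockout cells are digested with trypsin by FASP. Next, pooled IDA runs generate a reference ion library. Then six samples of 5 µg each are acquired by data-independent SWATH, and protein areas are normalized to the summed area of all detected proteins.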

| Molecule | Fold Change | Log (Fold Change) |
| --- | --- | --- |
| B1 | 0.7616 | -0.1182 |
| B2 | 0.7672 | -0.1151 |
| B3 | 0.7669 | -0.1152 |
| B4 | 0.76 | -0.1192 |
| B5 | 0.7682 | -0.1145 |
| B6 | 0.764 | -0.1169 |
| B7 | 0.7678 | -0.1147 |
| B8 | 0.7634 | -0.1173 |
| B9 | 0.7588 | -0.1199 |
